In the supplement of paper PMC11780869:

System: Bacillus subtilis
Assay: cleaved RNA product abundance (RNA/gDNA barcode ratio) relative to median wild-type variant (ratio to wild type); higher = more accumulation of the downstream cleavage product
Outline: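 In LB at 37°C, B. subtilis cultures went from OD600 0.0003 to 0.3. Their chromosomes held barcoded reporter mRNAs, truncated aprE or tetM, with RNase Y cleavage-site windows mutagenized via oligos at a 9% error rate. Cleaved RNA, chosen by gel, was reverse transcribed and barcode-sequenced alongside genomic DNA barcodes with UMI collapsing, giving a per-construct RNA:gDNA ratio scaled to the median construct with the unmutated site. This scaled ratio is termed cleaved product abundance.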

[1] = experiment (reporter, strain, medium): exp 4a: truncated aprE reporter, strain BJT201 with 2% xylose (RNase J1 expressed), cleavage site: cggR-gapA (positions -7 to +36 mutated)
[2] = experiment (reporter, strain, medium): exp 8a: truncated aprE reporter, strain BJT201 with 2% xylose (RNase J1 expressed), cleavage site: glnRA (positions -5 to +31 mutated)
[3] = experiment (reporter, strain, medium): exp 2b: truncated aprE reporter, strain BJT200, cleavage site: cggR-gapA (positions -7 to +36 mutated)
[4] = experiment (reporter, strain, medium): exp 6: tetM reporter, strain 168, cleavage site: cggR-gapA (positions -7 to +36 mutated)

Sequence: ACAGACGAAGGAGCCGCAAAGAAATTATTAAGAGATGAATTATCCCTCAATATAAATATCTCTCACTTATTTAAA
- cleaved RNA product abundance [1]: 0.121

Sequence: ACAGACGAAGGAGCCGCAAAGAAGTTATTAAGAGATGAATAATCCCTCAATATAAATGTCTCTCACTTATTTAAA
- cleaved RNA product abundance [1]: 0.0916

Sequence: CGACATGTCCCGCTTCTTTCATTAATCCGTTATCAAATGTTATGTTATATACATTTACCTTTTAAGAGGAGGAAT
- cleaved RNA product abundance [2]: 0.413

Sequence: ACAGACGAAGGAGCCGCAAAGAAATTATTAAGGAATGAATAATCCTTCAATATAAATATCTCTCACTTATTTAAA
- cleaved RNA product abundance [1]: 0.153

Sequence: ACAGACGAAGGAGCCGCATAGAAGTTATTAAGAGATGAATAATCCCTCAATATAAATATCTCTCACTTATTTAAA
- cleaved RNA product abundance [1]: 0.154

Sequence: ACAGACGAAGGAGCCGCAAAGATGTTATTAAGGGATGAATAATCACTCAATATAAATATCTCTCACTTATTTAAA
- cleaved RNA product abundance [1]: 0.181

Sequence: ACAGACGAAGGAGCCGCAAAGAAGTTATTAAGGGATGAAAAATCCCTCAAAATAAATATCTCTCACTTATTTAAA
- cleaved RNA product abundance [1]: 0.333

Sequence: CGACATGTCCCGCTTCTTTCATTAATCCGTTAGCAAATATTTTGCTATATACATTTACCTTTTAAGAGGAGGAAT
- cleaved RNA product abundance [2]: 0.843

Sequence: ACAGACGAAGGAGCCGCAAAGAAGTTATTAAGGGATGAATAATCCCTCAATATACATATCTCTCACTTATTTAAA
- cleaved RNA product abundance [3]: 0.933
- cleaved RNA product abundance [1]: 0.838
- cleaved RNA product abundance [4]: 0.498

Sequence: ACAGACGAAGGAGCCGCAAAGAATTTATTAAGGGATTAATAATCCCTCAATATAAATATCTCTCACTTATTTAAA
- cleaved RNA product abundance [3]: 0.771
- cleaved RNA product abundance [1]: 0.772

Sequence: ACAGACGAAGGAGCCGCAAAGAAGTTATTAAGGGTTGAATAATCCCTTAATATAAATATCTCTCACTTATTTAAA
- cleaved RNA product abundance [1]: 0.608

Sequence: ACAGACGAAGGAGCCGCAAAGAAGTTATTAAGGGATGAATAATCCCTCAAAATACATATCTCTCACTTATTTAAA
- cleaved RNA product abundance [3]: 0.202
- cleaved RNA product abundance [1]: 0.3

Sequence: ACAGACGAAGGAGCCGCATAGAAGTTATTAAGGTATGAATAATCCCTCAATATAAATATCTCTCACTTATTTAAA
- cleaved RNA product abundance [1]: 0.159

Sequence: ACAGACGAAGGAGCCGCAAAGAAGTTATTAAGGCATGAATAATCCCTCAATATGAATATCTCTCACTTATTTAAA
- cleaved RNA product abundance [1]: 0.0354

Sequence: CGACATGTCCCGCTTCTTTCATTAATCCGTTAGCAACTGTTTTACTATATTCATTTACCTTTTAAGAGGAGGAAT
- cleaved RNA product abundance [2]: 0.189

Sequence: ACAGACGAAGGAGCCGCAAAGTAGTTATTAAGGGATGAATAATTCCTCAATATAAATATCTCTCACTTATTTAAA
- cleaved RNA product abundance [1]: 0.75

Sequence: ACAGACGAAGGAGCCGCAAAGAAATTATTAAGGGATGAATAATCACTCAATATAAATATCTCTCACTTATTTAAA
- cleaved RNA product abundance [3]: 0.136
- cleaved RNA product abundance [1]: 0.122

Sequence: ACAGACGAAGGAGCCGCAAAGAAGTTATTAAGGGATGACTAATCCCTCAAAATAAATATCTCTCACTTATTTAAA
- cleaved RNA product abundance [3]: 0.192

Sequence: ACAGACGAAGGAGCCGCAAAGAAGTTATTGAGGGATGAATAATCCCTCAATATAAATATCTCTCACTTATTTAAA
- cleaved RNA product abundance [3]: 0.116
- cleaved RNA product abundance [1]: 0.0555
- cleaved RNA product abundance [4]: 0.247

Sequence: ACAGACGAAGGAGCCGCAAAGAAGTTATTAAGGGATGAATAATCACTCAATATACATATCTCTCACTTATTTAAA
- cleaved RNA product abundance [1]: 0.109

Sequence: CGACATGTCCCGCTTCTTTCATTAATCCGTTAGCAACTGTTTTGCAATATATATTTACCTTTTAAGAGGAGGAAT
- cleaved RNA product abundance [2]: 0.379

Sequence: ACAGACGAAGGAGCCGCACAGAAGTTATTCAGGGATGAATAATCCCTCAATATAAATATCTCTCACTTATTTAAA
- cleaved RNA product abundance [1]: 1.28

Sequence: ACAGACGAAGGAGCCGCAAAGAAGTAATAAAGGGATGAATAATCCCTCAATATAAATATCTCTCACTTATTTAAA
- cleaved RNA product abundance [1]: 0.205

Sequence: ACAGACGAAGGAGCCGCAAAGAACTTATTAAGGGGTGAATAATCCCTCAATATAAATATCTCTCACTTATTTAAA
- cleaved RNA product abundance [1]: 0.411

Sequence: ACAGACGAAGGAGCCGCAAATAAGTTATTAAGGGATGAATAATCCCTTAATATAAATATCTCTCACTTATTTAAA
- cleaved RNA product abundance [1]: 0.452

Sequence: ACAGACGAAGGAGCCGCAAAGAAGTTATTAATGGATGAATAATCCCTCAATATATATATCTCTCACTTATTTAAA
- cleaved RNA product abundance [3]: 0.0976
- cleaved RNA product abundance [1]: 0.15

Sequence: ACAGACGAAGGAGCCGCAAACAAGTTATTAAGAGATGAATAATCCCTCAATATAAATATCTCTCACTTATTTAAA
- cleaved RNA product abundance [3]: 0.0959
- cleaved RNA product abundance [1]: 0.118

Sequence: ACAGACGAAGGAGCCGCAAAGAAGTTATTAACAGATGAATAATCCCTCAATATAAATATCTCTCACTTATTTAAA
- cleaved RNA product abundance [3]: 0.0822
- cleaved RNA product abundance [1]: 0.0984

Sequence: ACAGACGAAGGAGCCGCAAAGAAGTTATTAAGGGATGAATAATCACTCAATATAAATACCTCTCACTTATTTAAA
- cleaved RNA product abundance [1]: 0.061

Sequence: ACAGACGAAGGAGCCGCAAAGAACTTAATAAGGAATGAATAATCCCTCAATATAAATATCTCTCACTTATTTAAA
- cleaved RNA product abundance [1]: 0.133

Sequence: ACAGACGAAGGAGCCGCAAATAAGTTATTAAGGGATGAATAATCCCTCAATATTAATATCTCTCACTTATTTAAA
- cleaved RNA product abundance [1]: 0.156

Sequence: ACAGACGAAGGAGCCGCAAAGAAGTTATTAAGGGATGAATAAACCCTTAATATAAATATCTCTCACTTATTTAAA
- cleaved RNA product abundance [1]: 0.507

Sequence: CGACATGTCCCGCTTCTTTCATTAATCCGTTAATAACTGTTTTGCTATATACATTTACCTTTTAAGAGGAGGAAT
- cleaved RNA product abundance [2]: 0.262

Sequence: ACAGACGAAGGAGCCGCAAAGAAGTTAATAAGGGATGAATAATCCCTCAATATAAATCTCTCTCACTTATTTAAA
- cleaved RNA product abundance [1]: 0.218

Sequence: ACAGACGAAGGAGCCGCAAAGAAGTTATTAAGGGATGAATAATCCCTGAACATAAATATCTCTCACTTATTTAAA
- cleaved RNA product abundance [1]: 0.242

Sequence: CGACATGTCCCGCTTCTTTCATTATTCCGTTAGCAACTGTTTTACTATATACATATACCTTTTAAGAGGAGGAAT
- cleaved RNA product abundance [2]: 0.607

Sequence: CGACATGTCCCGCTTCTTTCATTAATCCGTTAGCAACTGTTTTGCTATATGTATTTACCTTTTAAGAGGAGGAAT
- cleaved RNA product abundance [2]: 0.45

Sequence: ACAGACGAAGGAGCCGCAAGGAAGTTATTAAGGGATAAATAATCCCTCAATATAAATATCTCTCACTTATTTAAA
- cleaved RNA product abundance [3]: 0.888
- cleaved RNA product abundance [1]: 0.919

Sequence: ACAGACGAAGGAGCCGCAAAGAAGTTATAAAGTGATGAATAATCCCTCAATATAAATATCTCTCACTTATTTAAA
- cleaved RNA product abundance [3]: 0.0907
- cleaved RNA product abundance [1]: 0.117

Sequence: ACAGACGAAGGAGCCGCAAAGAAGTTATTAAGAGATGAATAATCACTCAATATAAATATCTCTCACTTATTTAAA
- cleaved RNA product abundance [3]: 0.0955
- cleaved RNA product abundance [1]: 0.127

Sequence: ACAGACGAAGGAGCCGCAAAGTAGTTATTAAGGGATGAATAATCACTCAATATAAATATCTCTCACTTATTTAAA
- cleaved RNA product abundance [3]: 0.11
- cleaved RNA product abundance [1]: 0.183

Sequence: ACAGACGAAGGAGCCGCAAAGAAGTTATTAAGGGATGAATAATGGCTCAATATAAATATCTCTCACTTATTTAAA
- cleaved RNA product abundance [1]: 0.0723

Sequence: ACAGACGAAGGAGCCGCATAGAAGTTAATAAGGGATGAATAATCCCTCAATATAAATATCTCTCACTTATTTAAA
- cleaved RNA product abundance [3]: 0.239
- cleaved RNA product abundance [1]: 0.304

Sequence: ACAGACGAAGGAGCCGCAAAGAAGTTCTTAAGGTATGAATAATCCCTCAATATAAATATCTCTCACTTATTTAAA
- cleaved RNA product abundance [1]: 0.145

Sequence: CGACATGTCCCGCTTCTTTCATTATTCCGTGAGCAACTGTTTTGATATATACATTTACCTTTTAAGAGGAGGAAT
- cleaved RNA product abundance [2]: 0.52

Sequence: ACAGACGAAGGAGCCGCAGAGAAGTTAATAAGGGATGAATAATCCCTCAATATAAATATCTCTCACTTATTTAAA
- cleaved RNA product abundance [1]: 0.449

Sequence: CGACATGTCCCGCTTCTTTCATTAATCCGTTAGCAATTGTTTTGCTATATACATTTGCCTTTTAAGAGGAGGAAT
- cleaved RNA product abundance [2]: 0.188

Sequence: ACAGACGAAGGAGCCGCAAAGAAGCTATTAAGAGATGAATAATCCCTCAATATAAATATCTCTCACTTATTTAAA
- cleaved RNA product abundance [3]: 0.0974
- cleaved RNA product abundance [1]: 0.123

Sequence: ACAGACGAAGGAGCCGCAAAGAAGTTATAAAGGGATGAACAATCCCTCAATATAAATATCTCTCACTTATTTAAA
- cleaved RNA product abundance [3]: 0.261

Sequence: CGACATGTCCCGCTTCTTTCATTAATCCGTTATGAACTGTTTTGCTATATACATTTACCTTTTAAGAGGAGGAAT
- cleaved RNA product abundance [2]: 0.252

Sequence: ACAGACGAAGGAGCCGCAAAGAAGTGATTAAGGGATGAATAATCCCTCAATATAAATAACTCTCACTTATTTAAA
- cleaved RNA product abundance [1]: 0.522

Sequence: ACAGACGAAGGAGCCGCAAAGAATTTATTAAGGGATGAATAATCCCTCAATATACATATCTCTCACTTATTTAAA
- cleaved RNA product abundance [1]: 0.606

Sequence: ACAGACGAAGGAGCCGCAAAGAAGTTATAAAGAGATGAATAATCCCTCAATATAAATATCTCTCACTTATTTAAA
- cleaved RNA product abundance [3]: 0.11
- cleaved RNA product abundance [1]: 0.137

Sequence: ACAGACGAAGGAGCCGCAAAGAAGTTATTAAGGGATGAATTATACCTCAATATAAATATCTCTCACTTATTTAAA
- cleaved RNA product abundance [3]: 0.139
- cleaved RNA product abundance [1]: 0.162

Sequence: ACAGACGAAGGAGCCGCAAAGAAGTTATTAAGGGATGAATAATCCCTCTACATAAATATCTCTCACTTATTTAAA
- cleaved RNA product abundance [1]: 0.441

Sequence: CGACATGTCCCGCTTCTTTCATTACTCCGTTAGCAACTGTTTTGCTTTATACATATACCTTTTAAGAGGAGGAAT
- cleaved RNA product abundance [2]: 0.58

Sequence: ACAGACGAAGGAGCCGCAAAGAAGTTATTAAGGAATGAATAATCCCTCAAAATAAATATCTCTCACTTATTTAAA
- cleaved RNA product abundance [3]: 0.0937
- cleaved RNA product abundance [1]: 0.122

Sequence: ACAGACGAAGGAGCCGCAAAGAAGTTATTAATGGATGAATAATCCCTCAATAGAAATATCTCTCACTTATTTAAA
- cleaved RNA product abundance [1]: 0.0769

Sequence: ACAGACGAAGGAGCCGCAAAGAAGTTATTAAGGCATGAATAATCCCTCAATATACATATCTCTCACTTATTTAAA
- cleaved RNA product abundance [3]: 0.112
- cleaved RNA product abundance [1]: 0.129

Sequence: CGACATGTCCCGCTTCTTTCATTAATTCGTTAGCAACTGTTTTGCTATATACAATTACCTTTTAAGAGGAGGAAT
- cleaved RNA product abundance [2]: 1.18
